Data on one molecule can be found in PMC7846482 (The Journal of Biological Chemistry, 2021).

The experiment deals with T1, SΔTM deglycosylated by PNGase F (trimeric spike protein without transmembrane domain) (SARS-CoV-2 Wuhan-Hu-1, UniProt P0DTC2, stabilised, deglycosylated by PNGase F).
T1 construct: also called nonglycosylated SΔTM; deglycosylated spike protein
Description: western blotting. As to conditions: both partners purified. (In general: In western blotting, separated proteins are transferred to a membrane and probed.)

B1: mouse anti-SARS-CoV-2 spike monoclonal antibody clone R31 (antibody, V domains shown)
VH: QVQLQQSGAELVRPGTSVKISCKASYTFTNYWLAWVKQRPGHGLEWIGDIYPGGAYTNFNEKFKGKATLTADTSSSTAYMQLSSLTSEDSAVYFCARDGHYGYAMDYWGQGTSVTVSS
VL: DIVMTQAAFSNPVTLGTSASISCRSSKSLLHSNGITYLYWYLQKPGQSPQLLIYQMSDLASGVPDRFSSSGSGTDFTLRISRVEAEDVGVYYCAQNLELPRTFGGGIKLEIK
For B1, the binding result was “binds”.
